Results: a protein production outcome set (Wang et al. 2014)

Test: label from the status in PepcDB records

MGATVPQRKALVLKASRILLSEKPLPERLQAFLEALLEGPFPIRSGKLYLRKGEGLRLVAQLGGEAGGEEVALSLEGGGRALGRLSLRLAPAASLAPEDRLALEEAAGILALALLRERAERAERVLRRAGECATQAAGEGDLLHKVCALLVEEGYALAWVGEARPTGEVVPREAAGAVGYLEGIRVRWDEAPEGQGPTGRALRSGRPQVLRSVEEDPRYAPWRERAQVFGFASSAAFPLRVEGRVWGSLNVYAPEEDAFDEEEVRLLEDLARLIGHALDRLRALERLRFLAYHDPLTGLPNRRRLEEDFRLLRGRWALCRLDLVDLYEVNEAYGREAGDALLARTSRRLQALLPREGRLYRLEGGEFLALLPGGAKEAEAFGQALGEALEAPLDLGEGRAFRVRVRAGVALFPDDANTLSELLRRADQALREAKKAGKRWTFYSLGLGEAVRERREVLAGLEKALAEGELRLYGQPIVDLATGRPAGVEVLLRWARGEEVVPASRFIPVAEEAGLIPELDLYVLRALAQMTTALPLHVNLSPQTLLDERLLLGLAPLKGRNLRLELTEHALASPGAEARLKELSCMGFPVVLDDFGQGYASLRLLVGLPFSMAKVDRGFVGGIGLDPKAEAALKAVLALSRELEIALVAEGVEREDQWAWLRSVGYSLGQGYLWGRPAPLEEVLYP
protein production: failed

MKIKGTEKVPILIFLGALAIGIAFLPPENSLTYDGALYINIARSLTKSVTSFTYQGIYMMYRPPLYPYTLSIFFRVFSSNHLLIARLVSVFSFALTSVLVYLLTLEMFRDSVKGIIASLFYIFNPLAFTMAGRELVHSEFTFFYTLAIYLLYTGKVRKSNTRIYLSFIAAGLAILTRYTGLSIVLVFLTYLWLTEDWNWVRRREYLIGFALLFLTLLPWLYMGHLYYGGFFRPFKIASKVVTLDRPVSAFDFIKMVIGDMGFLLPALAVLGFFRVKKDENGWLILSWLVMGGGGILTVTHKESRFITFLSPVIAILASEGIYLLSNLTPRIRRNNIVAVILALLLLIPIGMKADNLRDRWSIVGVYDSNVVRYVSEHYDGKKILVSPYLYTIAGYYYPNAEIDMILNRKEIVEKIAKGYYDVIIHKDPNVYLNIEESGNYVLVKEFHGGRFKVYINRRSLAK
protein production: failed

MMRRYFYQFSQKMITSVWWLLFVPMLLFAVMSPNIILGDNATFGTSTTLLTTGLIIVIVAVLIMNYAYPRVHRGLYRLLITKQLRTAGVLLALVFIGQLVFVTFVHPVSGFDAGMLHYAATSAKHVQEVGVTAYYSLNQNNMPIMLFMHWLSEVTGQTSWQFFDYVTLFFVDLSAAFNLMSVFVVRRSALGIAMYLHAGWLAVFPSIIMPYTDAWGLPLVSFFMLCYFVMSQTKRPPLLRVAAAVGFGVSVTLTYFMKPSSIIPVIAIAIISFLARLRSRQGSQTTMIFVTVAMAILMLESAGLTYHYTNQAIQNQTYIKIDKSRSIPAIHFMAMGVYGSGGYSEKQAIQMAVLPTKAQKTAYSIKMLKRQLKKLGPWGYLEFLVKKQRNNTADGTFGWLKEGNFFRENQKPSNQGFSNWLKNFIYLYGRHIADFRFVAQLWWLVLLVIIALGFGPRWQLIQLLRLAMIGGFIFLLLFEGGRSRYLIQYLPCLLLLGAFSFERAVANIRRVRDWYQRKLRAAIAADESE
protein production: failed

MEKKFLDILVCPVTKGRLEYHQDKQELWSRQAKLAYPIKDGIPYMLENEARALSEEELKALEHHHHHH
protein production: not failed

MTGASRARMHQLEREGDRPAKRVNKLLSDQETMIGAVLLGNNLINILASALATQVLTTLIPGPWGVAVATAAMTVLILIFAEVLPKTLAIVRSDDVARALSAPTLFIVRLFGPIIYAIQWIVRRTLRVFGVKLDMAVDVLAAHEEIRGAVDYHHSEGLVETDDRRMLGGVLDLSDMDVSEIMVHRKSMVLLDAGLPARELVDAVLEAQHTRIPLYRDQPDNIVGVLHARDLLKALAECPTGVEGLDIAAILREPWFIPDATNLKDQLNAFLKRKNHFALVVDEYGALQGLVTLEDILEEIVGEIEDEHDTTLDGVRRQGDGSVNVDGHVTVRDLNRAMDWRLPEGEAVTIAGLVIHEAQMIPEPGQTFIFYRHRFQVLRRQRNQITALRISARLDDDSDA
protein production: failed

MSERVSEEPGLDKGDRAEECELDDPELKAIRMRVREMEEEAERLKGLSGQDKSIGVSTRPCMQTTHSKMTAGAYTEGPPQPLSAEEKKEIDKRSVYVGNVDYGSTAQDLEAHFSSCGSINRITILCDKFSGHPKGYAYIEFAERNSVDAAVAMDETVFRGRTIKVLPKRTNMPGISSTDRGGFRGRPRGNRGNYQRGQRPRGRPFRGRGRPGPLNNPY
protein production: not failed

MGCCYSLSSTVDPVQDHTTDASSEPRNGGGEDPPLTKFSFSALKTATNHFSPENIVSDQTSDVVFKGRLQNGGFVAIKRFNNMAWSDPKLFLEEAQRVGKLRHKRLVNLIGYCCDGDKRFLVADFMANDTLAKRLFQRKYQTMDWSIRLRVAYFVAEALDYCNTAGFASYNNLSAYKVLFDEDGDACLSCFGLMKEINNDQITTGSVNPENVIYRFGTVLVNLLSGKQIPPSHAPEMIHRKNVFKLMDPYLKGKFSIDEANVVYKLASQCLKYEGQESPNTKEIVATLETLQTRTEAPSYEVVEMTNQEKDASSSSNLSPLGEACLRMDLASIHSILVLAGYDDDKDIIELSFEEWIQEVKELQDVRRNGDRAFVEQDFKTAIACYSQFVEERSLVYPSVYARRSLSYLFCDEPEKALLDGMHAQGVFPDWPTAFYLQSVALAKLDMNTDSADTLKEAALLEVKK
protein production: failed

MINEFFKETVWEEAWKEDQQTAVNKMKKAGMDKVHHFDLRAKSFNEQAFNEEGRKRTKRIMKWLEGQGVTFKDTSILDIGAASGGFTVPFAERGAEVTAVEPSLPLVELMKENITGITNGKVKIVAEPFEDIDIQAKGWGNAFDFVFVSMCPAIADWESVKRVLSCARQFCYISLSAGSREHSLLNEIWPLVSDQPLKNEHSEMAYLLHLLFLKGYTYESLVTREMKTREVSRETALNEVMDMLRMFGLPADDRNRKITAAYLERTYPNDKVEIRQGGRFGKVLIRLQNQNMYMNS
protein production: failed

MNKYFPLAKYKKEKMMFMKLLEGCYKVERLYIYSKRLCKQMEPKSQEEYNIARKQIKKTFDEGWTEADCGGRESCILEIPFVFWSSPNKSNCRRQPKRSYGKKLLYIPLNDLKDDIPYPNSSSEAGKVWKPQ
protein production: failed

MSEEIREVKVLEKPWVEKYRPQRLDDIVGQEHIVKRLKHYVKTGSMPHLLFAGPPGVGKCLTGDTKVIANGQLFELGELVEKLSGGRFGPTPVKGLKVLGIDEDGKLREFEVQYVYKDRTDRLIKIKTQLGRELKVTPYHPLLVNRENGEIKWIKAEELKPGDKLAIPSFLPLITGENPLAEWLGYFMGSGYAYPSNSVITFTNEDPLIRQRFMELTEKLFPDAKIRERIHADGTPEVYVVSRKAWSLVNSISLTLIPREGWKGIRSFLRAYSDCNGRIESDAIVLSTDNNDMAQQIAYALASFGIIAKMDGEDVIISGSDNIERFLNEIGFSTQSKLKEAQKLIRKTNVRSDGLKINYELISYVKDRLRLNVNDKRNLSYRNAKELSWELMKEIYYRLEELERLKKVLSEPILIDWNEVAKKSDEVIEKAKIRAEKLLEYIKGERKPSFKEYIEIAKVLGINVERTIEAMKIFAKRYSSYAEIGRKLGTWNFNVKTILESDTVDNVEILEKIRKIELELIEEILSDGKLKEGIAYLIFLFQNELYWDEITEVKELRGDFIIYDLHVPGYHNFIAGNMPTVVHNTTAALALARELFGENWRHNFLELNASDERGINVIREKVKEFARTKPIGGASFKIIFLDEADALTQDAQQALRRTMEMFSSNVRFILSCNYSSKIIEPIQSRCAIFRFRPLRDEDIAKRLRYIAENEGLELTEEGLQAILYIAEGDMRRAINILQAAAALDKKITDENVFMVASRARPEDIREMMLLALKGNFLKAREKLREILLKQGLSGEDVLVQMHKEVFNLPIEEPKKVLLADKIGEYNFRLVEGANEIIQLEALLAQFTLIGKK
protein production: failed

MPDKKREVSLSHRLQEVASFVPKGARLLDVGSDHAYLPIYLLEQGLIDFAVAGEIIKGPYESAVANVSESELSGQIAVRLADGLAALNDNDDIDLITICGMGGRLIADILAAGSDKLNSVKQLILQPNNCEDDLRSWLVANDFMIKAEKMVKDRHKYYEILVVEKGKITLSDKDLRFGPFLRQERSSIFKERWRKELAKLELALTKVPAKKKADNMFLSTKIEQIKEVLYES
protein production: not failed

MNYAEKKKNWIKLGIFALFAGGILAYIGISNADIHWGGFISMMIFFAFTYYLGAFYAAKKSNSFSDMIVAKRSMPFFVGMVTMAATWVGGGYINGTAESTYSDGLIWAQAPWGYALSLIIGGIFFARKMRRHQFMTIIDPLEQRFGKRMAGVLYIPALLGELFWSAAILTALGTTFGMILNIDFQTSIILSAMIAIAYTVAGGMWAVAFTDVFQMIVILLGLFLVVPFVLSNVGALDSVWANYRHDFGSSANLLPPLDGWKNPDWGNLFWNWWDNALLLIFGGIAWQVYFQRVLSAKSESAAMWQSIIAGVICIIAAIPCVIIGAAGNSTDWSLFGASAPDNPAMILPQTLAYLTPGIIAGLGLGAIAAAVMSSMDSSILSASSMAAWNIYRPLIKPKATQKQLQKVVKRSIILFGAGAAVIALNVKSVYTLWYLASDLVYCILFPQLTMALFYKRANLYGSIAGFAVAVILRLGGGEPAFGIPPLLPYPMIEDGTVLFPFRTLAAVTAFMTIFAVSELTQRKCPPKQLVLPQEKQKDDRAA
protein production: failed

MNEKIEQAIREMGFKNFTEVQSKTIPLMLQGKNVVVRAKTGSGKTAAYAIPILELGMKSLVVTPTRELTRQVASHIRDIGRYMDTKVAEVYGGMPYKAQINRVRNADIVVATPGRLLDLWSKGVIDLSSFEIVIIDEADLMFEMGFIDDIKIILAQTSNRKITGLFSATIPEEIRKVVKDFITNYEEIEACIGLANVEHKFVHVKDDWRSKVQALRENKDKGVIVFVRTRNRVAKLVRLFDNAIELRGDLPQSVRNRNIDAFREGEYDMLITTDVASRGLDIPLVEKVINFDAPQDLRTYIHRIGRTGRMGRKGEAITFILNEYWLEKEVKKVSQKA
protein production: not failed

MSLSFMIGYSWTQTEPGQVNHILDQFLSSMVREAGAVNYFVLPFPFSEDRSQIDIYRDLIRSGNVDGFVLSSINYNDPRVQFLLKQKFPFVAFGRSNPDWDFAWVDIDGTAGTRQAVEYLIGRGHRRIAILAWPEDSRVGNDRLQGYLEAMQTAQLPIETGYILRGEGTFEVGRAMTLHLLDLSPERRPTAIMTLNDTMAIGAMAAARERGLTIGTDLAIIGFDDAPMVQYLFPPLSSVRQPIAEAGRKCIELLVAIVEGREPEQKHILLQPSLIIRASEGLITITTDPNSSSVDKLAAALEHHHHHH
protein production: not failed

MGLTEQKQKHMEQLSDKNGIISALAFDQRGALKRLMAKYQSEEPTVSQIEALKVLVAEELTPYASSMLLDPEYGLPATKVLDDNAGLLLAYEKTGYDTSSTKRLPDCLDIWSAKRIKEEGADAVKFLLYYDVDSSDEVNEEKEAYIERIGSECVAEDIPFFLEILSYDEKITDSSGIEYAKIKPRKVIEAMKVFSNPRFNIDVLKVEVPVNMDYVEGFAQGETAYNKATAAAYFREQDQATLLPYIFLSAGVPAQLFQETLVFAKEAGAKFNGVLCGRATWAGSVKEYVEKGEAGARQWLRTIGFQNIDELNKILQKTATSWKER
protein production: not failed

MYFLLNLVGLIVIMAVVFLCSPQKKKIKWRPIITLIVLELLITWFMLGTKVGSWAIGKIGDFFTWLIACASDGIAFAFPSVMANETVDFFFSALLPIIFIVTFFDILTYFGILPWLIDKIGWVISKASRLPKLESFFSIQMMFLGNTEALAVIRQQLTVLSNNRLLTFGLMSMSSISGSIIGSYLSMVPATYVFTAIPLNCLNALIIANLLNPVHVPEDEDIIYTPPKEEKKDFFSTISNSMLVGMNMVIVILAMVIGYVALTSAVNGILGVFVHGLTNQTIFAYLFSPFAFLLGLPVHDAMYVAQLMGMKLATNEFVAMLDLKNNLKSLPPHTVAVATTFLTSFANFSTVGMIYGTYNSILDGEKSTVIGRNVWKLLVSGIAVSLLSAAIVGLFVW
protein production: failed
